Assay results: patent US20250066503A1, “CELL INJURY INDUCING THERAPEUTIC DRUG FOR USE IN CANCER THERAPY” (CHUGAI SEIYAKU KABUSHIKI KAISHA, priority 2016, published 2025)

Experiments:
PC-10 xenograft tumor = assay: In vivo drug efficacy, humanized NOG mouse model; design: species or system humanized NOG mice; conditions: 0.008, 0.04, 0.2, or 1 mg/kg once through the tail vein, compared to the vehicle-administered group
Protocol: (§1) Methods called an NOD scid/T cell-injected model, a humanized NOG mouse model, and a human CD3εδγ gene-modified mouse model were used in the in vivo drug efficacy evaluation. Assay using an NOD scid/T cell-injected model was performed as follows. […] T cells expanded by culturing human PBMCs in vitro were injected into the NOD scid mice with confirmed tumor establishment. The mice were treated by administering bispecific antibody-38 and bispecific antibody-30, -31, -32, or -33. Assay using a humanized NOG mouse model was performed as follows. CD34-positive hematopoietic stem cells derived from umbilical cord blood were transplanted into NOG mice by tail vein injection. Human T cells are constantly supplied in the mice, which are called humanized NOG mice. The PC-10 cell line was transplanted into humanized NOG mice. The humanized NOG mice with confirmed establishment of PC-10 tumor were treated by administering antibody-38. Assay using a human CD3εδγ gene-modified mouse model was performed as follows. Cells of mouse-derived cell line forced to express human GPC3 were transplanted into a human CD3εδγ gene-modified mouse model, which had been prepared according to Reference Example 10. The human CD3εδγ gene-modified mice with confirmed tumor establishment were treated by administering antibody-38. […]

[1] = test system: MKN74, FU-97, SNU-1, SCC152, KYSE70, PC-10, HuH-7, TOV-21G, RMG-1 and STM-03 xenograft tumors; assay: In vivo drug efficacy, NOD scid/T cell-injected model, xenograft tumors of various cancer types; design: species or system NOD scid mice; conditions: 1 mg/kg once through the tail vein; compared to the vehicle-administered group
Protocol: as §1

NCI-H446 tumor tissues [2] = assay: Histopathological evaluation of HE-stained tumor tissues; type: in vivo, humanized NOG mice
Protocol: (§2) The tumor samples were prepared as follows. The tumor samples when antibody-38 was used in combination with a chemotherapeutic agent in the humanized NOG mouse model were prepared by the procedure described below. 2.5 Gy of X ray was irradiated to NOG mice (In-Vivo Science Inc., Y). On the following day, 1×10^5 CD34-positive hematopoietic stem cells which are derived from umbilical cord blood were transplanted into the NOG mice by tail vein injection. After 16 to 20 weeks, each of human cancer cell lines (MKN45 and NCI-H446) was mixed with Matrigel™ Basement Membrane Matrix, and transplanted subcutaneously into the humanized NOG mice. The day of transplantation was defined as Day 0.
(§3) When tumor was established, the mice were separated into groups based on tumor size and body weight. Antibody-38 and the pharmaceutical agents for use in combination were administered according to the dose and dosing regimen described in Table 21. The mice were euthanized at the timing described in Table 21, and tumor was excised and preserved for use in tumor infiltrating lymphocyte (TIL) analysis, pathological analysis, or RNA analysis.
With respect to histological analysis of tumor tissues, tumor samples from mice six days after administration of antibody-38 and paclitaxel were fixed in 10% formaldehyde neutral buffer solution. […]

[3] = test system: MKN45 and NCI-H446 tumor tissues; assay: Comprehensive RNA analysis of tumor tissues using nCounter; type: in vivo, humanized NOG mice; conditions: in combination with paclitaxel or capecitabine; compared to antibody-38 or the chemotherapeutic agent alone
Protocol: RNA was extracted from tumor samples after administration of paclitaxel, cisplatin, or capecitabine and antibody-38. Comprehensive RNA analysis using nCounter, tumor infiltrating lymphocyte (TIL) analysis, and pathological analysis were performed as follows.
as §2
When tumor was established, the mice were separated into groups based on tumor size and body weight. Antibody-38 and the pharmaceutical agents for use in combination were administered according to the dose and dosing regimen described in Table 21. […]
RNA analysis was performed as follows. RNA was extracted (miRNeasy Mini Kit, QIAGEN) from the above-described tumor samples and the RNA concentrations were determined (NanoDrop, Thermo Fisher Scientific). […]

NCI-H446 tumor tissues [4] = assay: Tumor infiltrating lymphocyte (TIL) analysis of tumor tissues; type: in vivo, humanized NOG mice; conditions: in combination with a chemotherapeutic agent, paclitaxel or capecitabine; sixth day after antibody-38 administration; compared to either alone
Protocol: as §2, §3
TIL analysis was performed as follows. Tumor tissues which were dissected from mice transplanted with NCI-H446 described in Table 21 on the sixth day after antibody-38 administration were dissociated into cells by enzyme treatment using gentle MACS™ Octo Dissociator. […]

B1: antibody-38: anti-human CD3ε chain and anti-human GPC3 bispecific antibody; H chains SEQ ID NO: 385 and 402, common L chains SEQ ID NO: 410 (antibody)
heavy 1: QVQLVQSGAEVKKPGASVTVSCKASGYTFTDYEMHWIRQPPGEGLEWIGAIDGPTPDTAYSEKFKGRVTLTADKSTSTAYMELSSLTSEDTAVYYCTRFYSYTYWGQGTLVTVSSASTKGPSVFPLAPCSRSTSESTAALGCLVKDYFPEPVTVSWNSGALTSGVHTFPAVLQSSGLYSLSSVVTVPSSSLGTQTYTCNVDHKPSNTKVDKRVESKYGPPCPPCPAPEFRGGPKVFLFPPKPKDTLMISRTPEVTCVVVDVSQEDPEVQFNWYVDGVEVHNAKTKPREEQFASTYRVVSVLTVLHQDWLNGKEYKCKVSNKGLPSSIEKTISKAKGQPREPQVYTLPPSQEEMTKNQVSLTCLVKGFYPSDIAVEWESNGQPENNYKTTPPVLDSDGSFFLYSKLTVDKSRWQEGNVFSCSVMHEALHNHYTQESLSLSP
heavy 2: QVQLVESGGGVVQPGGSLRLSCAASGFTFSNAWMHWVRQAPGKGLEWVAQIKDKSQNYATYVAESVKGRFTISRADSKNSIYLQMNSLKTEDTAVYYCRYVHYAAGYGVDIWGQGTTVTVSSASTKGPSVFPLAPCSRSTSESTAALGCLVKDYFPEPVTVSWNSGALTSGVHTFPAVLQSSGLYSLSSVVTVPSSSLGTKTYTCNVDHKPSNTKVDKRVESKYGPPCPPCPAPEFRGGPKVFLFPPKPKDTLMISRTPEVTCVVVDVSQEDPEVQFNWYVDGVEVHNAKTKPREEQFASTYRVVSVLTVLHQDWLNGKEYKCKVSNKGLPSSIEKTISKAKGQPREPQVYTLPPSQKEMTKNQVSLTCLVKGFYPSDIAVEWESNGQPENNYKTTPPVLDSDGSFFLYSKLTVDKSRWQEGNVFSCSVMHEALHNHYTQKSLSLSP
light: DIVMTQSPLSLPVTPGEPASISCRSSQPLVHSNRNTYLHWYQQKPGQAPRLLIYKVSNRFSGVPDRFSGSGSGTDFTLKISRVEAEDVGVYYCGQGTQVPYTFGQGTKLEIKRTVAAPSVFIFPPSDEQLKSGTASVVCLLNNFYPREAKVQWKVDNALQSGNSQESVTEQDSKDSTYSLSSTLTLSKADYEKHKVYACEVTHQGLSSPVTKSFNRGEC
modifications: An artificially generated sequence
In the case of B1, the anti-tumor effect (PC-10 xenograft tumor) is reported as “evident, dose-dependent anti-tumor effect”, the anti-tumor effect [1] is reported as “evident anti-tumor effect” and the immune cell infiltration (NCI-H446 tumor tissues [2]; antibody 38 administered, six days after administration) is reported as “observed around the tumor periphery”. For the same molecule, the “immune cell infiltration area” value (NCI-H446 tumor tissues [2]; antibody-38 in combination with paclitaxel) was “expanded”, the “expressions of genes involved in the progress of cell cycle” value [3] was “suppressed” and the “expressions of immune cell markers, chemokines, cytokines, genes involved in cell death, genes involved in cell cycle regulation” value [3] was “increased”. For the same molecule, the “cell populations expressing T cell markers, activated T cell markers, and proteins involved in cytotoxic activity” value (NCI-H446 tumor tissues [4]) was “increased”.
